{
  "source": "paper PMC6235889",
  "about": "“Conformational ensemble of the human TRPV3 ion channel” (Nature Communications, 2018)",
  "proteins": {"B1": {"name": "full-length human TRPV3 containing the point mutation T96A (natural protein, UniProt Q8NET8-1 1-790, looked up)", "chain": "MKAHPKEMVPLMGKRVAAPSGNPAILPEKRPAEITPTKKSAHFFLEIEGFEPNPTVAKTSPPVFSKPMDSNIRQCISGNCDDMDSPQSPQDDVTEAPSNPNSPSAQLAKEEQRRKKRRLKKRIFAAVSEGCVEELVELLVELQELCRRRHDEDVPDFLMHKLTASDTGKTCLMKALLNINPNTKEIVRILLAFAEENDILGRFINAEYTEEAYEGQTALNIAIERRQGDIAALLIAAGADVNAHAKGAFFNPKYQHEGFYFGETPLALAACTNQPEIVQLLMEHEQTDITSRDSRGNNILHALVTVAEDFKTQNDFVKRMYDMILLRSGNWELETTRNNDGLTPLQLAAKMGKAEILKYILSREIKEKRLRSLSRKFTDWAYGPVSSSLYDLTNVDTTTDNSVLEITVYNTNIDNRHEMLTLEPLHTLLHMKWKKFAKHMFFLSFCFYFFYNITLTLVSYYRPREEEAIPHPLALTHKMGWLQLLGRMFVLIWAMCISVKEGIAIFLLRPSDLQSILSDAWFHFVFFIQAVLVILSVFLYLFAYKEYLACLVLAMALGWANMLYYTRGFQSMGMYSVMIQKVILHDVLKFLFVYIVFLLGFGVALASLIEKCPKDNKDCSSYGSFSDAVLELFKLTIGLGDLNIQQNSKYPILFLFLLITYVILTFVLLLNMLIALMGETVENVSKESERIWRLQRARTILEFEKMLPEWLRSRFRMGELCKVAEDDFRLCLRINEVKWTEWKTHVSFLNEDPGPVRRTDFNKIQDSSRNNSKTTLNAFEEVEEFPETSV", "notes": "Transient receptor potential vanilloid channel 3 (TRPV3), human, full length, with the stabilising point mutation T96A; Homotetramer; Residues 1-117, which include T96A, were not resolved in the reconstructions; No removal of the FLAG tag is described; also called hTRPV3; TRPV3_(T96A); source: Sf9 insect cells (baculovirus), purified (anti-FLAG resin, size exclusion), reconstituted in PMAL-C8 …"}},
  "target": "the molecule itself",
  "assay": "cryo-EM structure; apo TRPV3 T96A in PMAL-C8 amphipol, 50 mM Tris pH 8, 150 mM NaCl; Titan Krios 300 keV; C4 symmetry, ~3.4 Å",
  "data": [
    {"protein": "B1", "values": [
      {"measurement": "stoichiometry N", "result": 4}
    ]}
  ]
}
